Legend:
[1] = molecular target: T1, mMobA minimal relaxase domain (Escherichia coli, UniProt P07112 SEQ:1-186); test: covalent adduct by SDS-PAGE; 1 uM protein, 5 uM DNA, 30 min 37 C; details: tags: N-terminal His6-SUMO; label: Cy3
T1 chain: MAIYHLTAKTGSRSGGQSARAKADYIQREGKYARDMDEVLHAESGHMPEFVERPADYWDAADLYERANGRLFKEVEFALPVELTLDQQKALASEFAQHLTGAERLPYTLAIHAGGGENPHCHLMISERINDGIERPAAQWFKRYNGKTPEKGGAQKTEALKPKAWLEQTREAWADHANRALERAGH
Experimental: (§1) The HUH endonuclease-based protein tags described herein allow one to orthogonally label proteins in cells.
(§2) Unless otherwise noted, gel-shift assays were performed in HUH buffer; 50 mM Hepes pH 8, 50 mM NaCl, 1 mM MgCl₂ and 1 mM MnCl₂, incubated at 37° C. for 15 minutes unless otherwise noted, and quenched with 4× loading buffer. The reactions were analyzed by either electrophoresis on 4-20% polyacrylamide gels stained with Coomassie Blue or Bio-Rad Stain-Free gels. For comparison of covalent adduct formation of SNAP and DCV, 25 pmol of SNAP/DCV proteins were mixed with 100 pmol respective DNA-oligo in SNAP/HUH buffer. 4×SDS loading buffer was added at indicated times to quench. SNAP buffer: 50 mM Hepes pH8, 50 mM NaCl, and 5 mM β-mercaptoethanol. Specificity reactions of HUH-proteins with each target-oligo were performed in HUH buffer with 150 mM NaCl.

RepB HUH domain = molecular target: T2, RepB HUH domain (Streptococcus agalactiae, UniProt P13921 SEQ:1-132); test: as above; details: tags: N-terminal His6-SUMO; label: FAM
T2 chain: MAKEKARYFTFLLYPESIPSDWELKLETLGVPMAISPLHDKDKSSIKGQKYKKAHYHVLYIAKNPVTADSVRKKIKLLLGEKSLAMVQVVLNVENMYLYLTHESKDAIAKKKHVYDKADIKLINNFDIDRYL
Experimental: as §1, §2

GeneA* HUH (Y131H) [2] = molecular target: T3, GeneA* HUH (Y131H) (PhiX174, UniProt P03631 SEQ:1-340); test: covalent adduct by SDS-PAGE; details: tags: N-terminal His6-SUMO; label: FAM
T3 chain: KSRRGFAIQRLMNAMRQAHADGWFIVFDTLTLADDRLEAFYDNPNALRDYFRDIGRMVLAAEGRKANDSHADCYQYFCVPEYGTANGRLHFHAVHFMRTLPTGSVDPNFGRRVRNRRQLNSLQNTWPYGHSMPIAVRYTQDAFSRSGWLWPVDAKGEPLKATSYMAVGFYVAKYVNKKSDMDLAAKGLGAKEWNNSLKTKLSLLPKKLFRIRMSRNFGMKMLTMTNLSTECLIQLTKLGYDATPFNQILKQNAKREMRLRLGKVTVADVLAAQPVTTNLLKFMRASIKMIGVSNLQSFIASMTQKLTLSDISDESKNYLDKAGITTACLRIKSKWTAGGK
Experimental: The reaction time is extremely fast. […] Product is observed after a reaction time of only five minutes.
as §2

GeneA* HUH (Y131H) [3] = molecular target: T3, GeneA* HUH (Y131H); test: no cross-reactivity in mixture; details: tags: N-terminal His6-SUMO; label: Cy5

CCAGTTTCTCGAAGAGAAACCGGTAAATGCGCCCT (ssDNA) [mMobA target]: binds [1].

TGCTTCCGTACTACGACCCCCCA (ssDNA) [RepB target]: binds (RepB HUH domain).

TCGACAACTTGATATTAATAACACTATAGAC (ssDNA) [GeneA target]: binds (GeneA* HUH (Y131H) [2]).

AAGTATTACCAG (ssDNA) [PCV2 ori target]: no binding (GeneA* HUH (Y131H) [3]).
